The experiment concerns the target T1, B-세포 에피토프 펩타이드 Myc362 (human).
T1 construct: Synthetic peptide of over 90% purity, coated on the ELISA plate at 5 ug/ml; also called Myc362 펩타이드
The experiment in a line: ELISA; Myc362 peptide coated at 5 ug/ml, antibody in serial dilution, HRP anti-IgG detection.

Drawing on KR20180112916A (dated 2018), this text covers Kd for one molecule.

T1 sequence (peptide, as listed by the source): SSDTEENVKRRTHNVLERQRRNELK

B1: 2E2F12 단클론 항체 (anti-Myc362 펩타이드-특이적인 단클론 항체) (antibody, V domains shown)
VH: EVQLQESGTELVKPGASVKLSCKASGYTFTSYWMHWVKLRPGQGFEWIGEINPSSGGTNYNENFKRKATLTVDRSSSTAYMQLSSLTSEDSAVYYCTIHRSYWGQGTTLTVSS
VL: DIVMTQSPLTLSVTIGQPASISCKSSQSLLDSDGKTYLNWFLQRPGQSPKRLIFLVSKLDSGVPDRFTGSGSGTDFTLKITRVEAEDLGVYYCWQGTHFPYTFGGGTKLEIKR
notes: also called 2E2F12 클론; anti-c-Myc 단클론 항체
Consider B1, for which the Kd is approximately 37 nM.
